Among the data in the RNAGym collection of RNA variant scans (doi:10.7554/elife.80360) are self-cleavage values, retold here.

To fix the notation:
B1: Twister Ribozyme (parent)
chain: AACACUGCCAAUGCCGGUCCCAAGCCCGGAUAAAAGUGGAGGGGGCGG

The variants in the series derive from B1. The experiment in a line: self-cleavage, relative activity (ratio to wild type); higher = more cleavage; co-transcriptional.
Turning to AACACUGCCCAUGCCGGUCCCAAGCCCGGUUAAAAGUGGAGGGGGCGG, the self-cleavage was 1.11.

On to AACACUGCCAAUGCCGGUCCAAAGCCCGGGUAAAAGUGGAGGGGGCGG, for which the self-cleavage was 0.0944.

In the case of AACACUGCCAAUGCCGCUCCCAAGCCCGGAUAAAAGUGGAGGGUGCGG, the self-cleavage amounted to 0.124.

Consider AACACUGCCAAUGCCGGUCCCAACCCCGGAUGAAAGUGGAGGGGGCGG, for which the self-cleavage came to 0.0875.

As for AACACUGCCAAUGCCGGUCCCAAGCUCGCAUAAAAGUGGAGGGGGCGG, the self-cleavage came out at 0.0821.

Take AACACUGCCAAUGACGGUCCCAAGCCCGGAUAAAAGUGGAGGGGGCUG: the self-cleavage is 0.66.

As for AACACUGCCAAUGCCGGUCCCAAGCCCGGGUAACAGUGGAGGGGGCGG, the self-cleavage came to 0.497.

Turning to AACACUGCCAAUGCCGCUCCCAAGCCCGGAUAAAAGUGGAGGGGGCUG, the self-cleavage came out at 0.0863.

As to AACACUGACAAUGCAGGUCCCAAGCCCGGAUAAAAGUGGAGGGGGCGG, the self-cleavage worked out at 0.134.

Regarding AACACUGCCAAUGCCGGUCCCAAGCCCGGAAAAAUGUGGAGGGGGCGG, the self-cleavage worked out at 1.09.

With AAAACUGCCAAUGCGGGUCCCAAGCCCGGAUAAAAGUGGAGGGGGCGG, the self-cleavage was 0.0656.

Consider AACACUGCCAAUGCCGGUCCCAAGCCCGAAUAAAAGUGGAGGGCGCGG, for which the self-cleavage is 0.803.

As to AACACUGCCAAUGCCGGUCCCAAGCCCGGCUAAAAGGGGAGGGGGCGG, the self-cleavage came to 0.306.

Regarding AACACUGCCAAGGCCGGUCCCAAGUCCGGAUAAAAGUGGAGGGGGCGG, the self-cleavage came to 0.675.

As to AACACUGCCAAUUCCGGUCCCAAGCCCGGUUAAAAGUGGAGGGGGCGG, the self-cleavage is 0.749.

On to AACACUGCCAAUGCCGGUCCGAAGCCCGGAUAAAAGUGGAGGGGGCGG, for which the self-cleavage was found to be 0.0865.

For AACACUGCCAAUGCGGGUCCCAAGCCCGGAUAAAACUGGAGGGGGCGG, the self-cleavage was determined as 0.0921.

Turning to AACACUGCCAAUGCCGGUCCCAAGCCCGGCAAAAAGUGGAGGGGGCGG, the self-cleavage worked out at 0.687.

For AACACUGCCAGUGCCGGACCCAAGCCCGGAUAAAAGUGGAGGGGGCGG, the self-cleavage turned out to be 0.61.

AACACUGCCAAUGCCGGUCCCAAGGCCGCAUAAAAGUGGAGGGGGCGG: the self-cleavage was 0.109.

For the variant AACACUGCCAAUGCCGGUCACAAGCCCGGACAAAAGUGGAGGGGGCGG, the self-cleavage turned out to be 0.117.

On to AACACUGCCAAUGCCGGUCCCAAGGCCGGAUAACAGUGGAGGGGGCGG, for which the self-cleavage came to 0.115.

Regarding AACACUGCCCAUGCCGGUCCCAAGCCCGGAUAAAAGUGGAGGGCGCGG, the self-cleavage was determined as 0.867.

With ACCACUGCCAAUGCCGGUCCCAAGCCCGGAUAUAAGUGGAGGGGGCGG, the self-cleavage is 0.0693.

For the variant AACACUGUCAAUGCCGGUCCCAAGCCCGGAUAAAAGUGGAAGGGGCGG, the self-cleavage came to 0.112.

In the case of AACACAGCCAAUGCCGGUACCAAGCCCGGAUAAAAGUGGAGGGGGCGG, the self-cleavage was found to be 0.0793.

As to AACACUGCCAAUGCCGGUCCCAUCCCCGGAUAAAAGUGGAGGGGGCGG, the self-cleavage came out at 0.109.

In the case of AACACUGCCAAUGCCGGUCCCAUACCCGGAUAAAAGUGGAGGGGGCGG, the self-cleavage stood at 0.0917.

AACACUGCCAAUGCCGGUCCCAAGCCCGGGGAAAAGUGGAGGGGGCGG: the self-cleavage came out at 1.02.

Turning to UAAACUGCCAAUGCCGGUCCCAAGCCCGGAUAAAAGUGGAGGGGGCGG, the self-cleavage came out at 0.222.

With AACACUGCCAAUGCCGGUCCCAAGCCCGGAUAAAAAUGGAGGGGGUGG, the self-cleavage worked out at 0.766.

For the variant AACUCUGCCAAUGCCGGUCCCAAGCCCGGAUAGAAGUGGAGGGGGCGG, the self-cleavage was found to be 0.0639.

Consider AACACUGCCAAUGCCGGUCCCAAGCCCGGAUAAAAGGGGAGGGGGUGG, for which the self-cleavage amounted to 0.76.

As for AACACUGCCAAUGCCGGUCCCUAGACCGGAUAAAAGUGGAGGGGGCGG, the self-cleavage was determined as 0.0894.

AACACUGCCAAUGCCGGUCCCAAGCCCGGAUAAAAGUGGAGGGAGCAG: the self-cleavage worked out at 0.867.

As to AACACUGCCAAUGCCGGUCCCAAGCCCGGAUAAAAGUCGAGGGGUCGG, the self-cleavage came to 0.719.

On to AACACUGCCAAUGCCGGUUCCAAGCCCGGAAAAAAGUGGAGGGGGCGG, for which the self-cleavage was found to be 0.682.

Take AACACUGCCAAUGCCGAUCCCAAGCCCGGAUAUAAGUGGAGGGGGCGG: the self-cleavage was 0.614.

For the variant AACACUGCCAAUGCCGGUCCCAAGCCCGGAUAAGAGUGGAGGGGACGG, the self-cleavage was 0.721.

Regarding AACACUGCCAAUGGCGGUCCCAAGCCCGGAUAAAAGUGGAGGGGGAGG, the self-cleavage was 0.078.

For AACACUGCCAAUGCCGGUCCCAAGCCCGGAUAAAAGUGGAGGCGGCAG, the self-cleavage was 0.138.

On to AACACUACCAAUGCCGGUCCCAAGCCCGGAUAAAAUUGGAGGGGGCGG, for which the self-cleavage is 0.108.

Consider AACACUGCCAAUGCCGGUCCCAAGCCCGGAUAAAAGUGGGGGGGGCGG, for which the self-cleavage is 0.153.

In the case of AACACUGCCAAUGCCUGUCCCAAGCCCGGAUAAAAGUGGAGGGGACGG, the self-cleavage came to 0.608.

With AACACUGCCAAUACCGGUCCCAAGCCUGGAUAAAAGUGGAGGGGGCGG, the self-cleavage was 0.482.

As to AACACUGCCAAUGGCGGUCCCAAGCCCUGAUAAAAGUGGAGGGGGCGG, the self-cleavage is 0.157.

AACACUGCCAAUGCAGGACCCAAGCCCGGAUAAAAGUGGAGGGGGCGG: the self-cleavage is 0.0699.

For the variant AACACUGCCAAUUCCGGUCCCGAGCCCGGAUAAAAGUGGAGGGGGCGG, the self-cleavage turned out to be 0.098.

As for AACACUGUCAAUGCCGGUCCCAAGCCCGGUUAAAAGUGGAGGGGGCGG, the self-cleavage stood at 0.662.

AACACUGCCAAUGCCGGUCCCAAGCCCAGAUAAACGUGGAGGGGGCGG: the self-cleavage was determined as 0.793.

As to AACACUGCCAAUGACGGUCCCAAGCCCGGAUAAAAGUUGAGGGGGCGG, the self-cleavage came out at 0.676.

Consider AACACUGGCAAUGCCGGUCCCAAGCCCGGAUAAAAGUGGAGGGGCCGG, for which the self-cleavage amounted to 0.118.

As for CACACUGCCAAUGCCGGUCCCAAGCCCGGAUAAAAGUGGAGGGGGCGU, the self-cleavage was 0.212.

Turning to AGCACUGCCAAUGCCGGUCCCAAGCUCGGAUAAAAGUGGAGGGGGCGG, the self-cleavage was 0.08.
